From US5837813
Several values for one entry are separate records, joined by “and”; a condition that tells them apart may be missing. Equal values may be shown once.

Legend:
[1] = biological target: human fibronectin (human) (UniProt P02751); test: Scatchard analysis (LIGAND) of 125I-fibronectin binding to coated fibronectin competed by unlabeled fibronectin
[2] = biological target: human fibronectin (human) (UniProt P02751); test: Scatchard analysis (LIGAND), fibronectin on coated fibronectin
[3] = biological target: human fibronectin (human) (UniProt P02751); test: Scatchard analysis (LIGAND) of 125I-fibronectin binding to coated fibronectin competed by unlabeled fibronectin; low affinity site

Kd [1]: 8 nM | binding sites per 1000 fibronectin dimers, high affinity site (sites per 1000 fibronectin dimers) [2]: 1 and 2 | binding sites per fibronectin dimer, low affinity site (sites per fibronectin dimer) [2]: 1 and 2 | Kd [3]: 800 nM
Substance: human fibronectin (from UniProt P02751)
